Measured values as given in patent US20230399394A1 (SUNSHINE GUOJIAN PHARMACEUTICAL SHANGHAI, published 2023).
One block for each binder: values may come before it.

Assays:
Human IL-33-his [1] = target: T1, Human IL-33-his (human, UniProt O95760 112-270, biotinylated with EZ-Link NHS-Biotin where used as IL-33-his-biotin); test: competition ELISA, antibody mixed with IL-33-his-biotin, ST2-Fc on plate; competitor ST2-Fc
T1 construct: Used plain (SPR, cell assays) and biotinylated (ELISA); also called IL-33-his-biotin
T1 sequence: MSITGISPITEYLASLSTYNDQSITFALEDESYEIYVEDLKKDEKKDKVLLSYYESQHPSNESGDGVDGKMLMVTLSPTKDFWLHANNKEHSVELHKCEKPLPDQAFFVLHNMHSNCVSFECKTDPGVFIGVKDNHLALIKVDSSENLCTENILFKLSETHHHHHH
Method: (§1) ST2-Fc protein was diluted to 1 μg/mL with ELISA coating solution to coat ELISA plate with 100 μL/well. The plate was placed in a wet box at 4° C. for 16 h for coating. The ELISA plate was washed 3 times with PBST, and then was blocked with 2% BSA prepared in PBS at 200 μL/well at room temperature for 2 h. The plate was washed once with PBST, and was patted dry to remove the excess blocking solution. Each monoclonal antibody was diluted with 1% BSA prepared in PBST in a 3-fold gradient. The highest concentration of antibody was 10 μg/mL, and the antibody was diluted for 11 gradients. The diluted antibody was mixed 1:1 with 10 ng/ml IL-33-his-biotin, and then the mixture was added into the ELISA well at 100 μL/well. The plate was incubated at room temperature for 1 h. Each concentration was added to duplicate wells in parallel (maximum final concentration of antibody was […], final concentration of IL-33-his-biotin was 5 ng/mL). Unbound or non-specifically bound primary antibodies were washed out. According to the instructions of the antibody, HRP labeled streptavidin secondary antibody was diluted to an appropriate concentration with antibody diluent solution, then it was added to ELISA plate with 100 μL/well, and was incubated at room temperature for 1 h. The ELISA plate was washed with PBST for 5 times, and was patted dry on absorbent paper to remove excess liquid. TMB developing solution was added with 100 μL/well for development to an appropriate degree. 2M H₂SO₄ was added with 70 μL/well to terminate development, and the absorbance was measured at 450 nm on a multifunctional microplate reader. The data were analyzed.

Human IL-33-his [2] = target: T1, Human IL-33-his; test: competition ELISA: antibody mixed with IL-33-his-biotin, added to an ST2-Fc-coated plate, HRP-streptavidin; blocked ligand ST2-Fc
Method: as §1, with “According to the instructions of the antibody, HRP labeled streptavidin secondary antibody was diluted to an appropriate concentration with antibody diluent solution, then it was added to ELISA plate with 100 μL/well, and was incubated at room temperature for 1 h. The ELISA plate was washed with PBST for 5 times, and was patted dry on absorbent paper to remove excess liquid. TMB developing solution was added with 100 μL/well for development to an appropriate degree.” left out

Human IL-33-his [3] = target: T1, Human IL-33-his; test: ELISA, IL-33-his-biotin on streptavidin plate, anti-human Fc detection
Method: SA protein was diluted to 2 μg/mL to coat ELISA plate at 100 μL/well overnight at 4° C. The plate was washed with PBST (PBS containing 0.05% Tween20) for 3 times, and blocked with 2% BSA prepared in PBS at 200 μL/well, at room temperature for 2 h. After the plate was washed twice with PBST, IL-33-his-biotin protein was diluted to 1 μg/mL with 1% BSA prepared in PBST, and was added to ELISA plate at 100 μL/well. The plate was incubated at room temperature for 1 h, and each monoclonal antibody was diluted with 1% BSA prepared in PBST in a 3-fold gradient. The highest concentration of antibody was 10 μg/mL, and the antibody was diluted for 12 gradients. Each diluted monoclonal antibody was added to ELISA wells with 100 μL/well, and the plate was incubated at room temperature for 1 h. Each sample was added to duplicate wells in parallel. The plate was washed with PBST for 3 times, and HRP-anti human IgG Fc secondary antibody prepared with PBST was diluted at an appropriate ratio, and was added to ELISA wells at 100 μL/well. The plate was incubated at room temperature for 1 h. After washing with PBST for 3 times, TMB developing solution was added at 100 μL/well. When the development met expectations, 2M H₂SO₄ was added to terminate the chromogenic reaction at 70 μL/well. Each reaction solution was shaken uniformly and OD450 nm was read on a microplate reader. The data was analyzed and EC₅₀ was calculated.

Human IL-33-his [4] = target: T1, Human IL-33-his; test: indirect ELISA, biotinylated IL-33-his on streptavidin plate
Method: The binding ability of murine antibody to human IL-33 protein was determined by indirect enzyme-linked immunosorbent assay (ELISA). The specific methods were as follows: The plate was pre-coated with biotin-avidin (SA) which was diluted in coating solution (50 mM carbonate coating buffer, pH 9.6) to 2 μg/ml at 4° C. overnight, then the plate was blocked with 5% skim milk powder at 37° C. for 2 hours and stored at −80° C. for later use. Biotinylated recombinant human IL-33-his protein was diluted to 0.5 μg/ml in coating solution (50 mM carbonate coating buffer, pH 9.6) and was added at 100 μl/well to the pre-coated SA plate, 37° C., 0.5 h. After washing the plate with PBST for 3 times, the antibodies to be tested were diluted by gradient with 1% BSA buffer and added into the blocked plate at 100 μl/well, and incubated at 37° C. for 1 hour. The plate was washed with PBST for 3 times, and the HRP-labeled goat anti-mouse IgG was added and placed at 37° C. for 30 min. After washing the plate with PBST for 3 times, the plate was patted on the absorbent paper to remove residual droplets as far as possible. […] OD values were read at 450 nm on the microplate reader to analyze the binding ability of the antibodies to be tested to the target antigen human IL-33-his.

Human IL-33-his [5] = target: T1, Human IL-33-his; test: competition ELISA, antibody mixed with IL-33-his-biotin, ST2 on plate; competitor ST2
Method: ST2 is the only receptor for IL-33 that has been discovered so far. As a cytokine, IL-33 exerts its physiological function depending on ST2 signaling pathway, and the blocking activity of antibody can reflect the neutralizing activity thereof. The specific method was as follows: the plate was coated with 2 μg/ml ST2 PBS solution at 4° C. overnight; the plate was washed with PBST for 3 times, then the plated was blocked with 5% skim milk powder at 37° C. for 2 hours; the plate was washed with PBST for 3 times for later use. 20 ng/ml IL-33-his-biotin antigen diluted by 1% BSA was mixed with antibodies to be tested diluted by gradient with 1% BSA at 1:1 equal volume and incubated at 37° C. for […]. The mixture was added to a pre-coated ST2 plate and incubated at 37° C. for 1 h. The plate was washed with PBST for 3 times. HRP-labeled streptavidin secondary antibody was added at 1:8000 and incubated at 37° C. for 0.5 hours. After washing the plate with PBST for 3 times, the plate was patted on the absorbent paper to remove residual droplets as far as possible. 100 μl TMB was added to each well, and the plate was placed at room temperature (20±5° C.) for 5 minutes away from light; 50 μl 2M H₂SO₄ terminating solution was added to each well to terminate the substrate reaction. OD values were read at 450 nm on the microplate reader.

Cynomolgus IL-33-his = target: T2, Cynomolgus IL-33-his (cynomolgus, UniProt A0A2K5W3I1 112-269, biotinylated in the ELISA of Example 6); test: indirect ELISA, biotinylated cynomolgus IL-33-his on streptavidin plate
T2 construct: Bought protein; also called cynomolgus IL-33 protein; Cynomolgus monkeys IL-33
T2 sequence: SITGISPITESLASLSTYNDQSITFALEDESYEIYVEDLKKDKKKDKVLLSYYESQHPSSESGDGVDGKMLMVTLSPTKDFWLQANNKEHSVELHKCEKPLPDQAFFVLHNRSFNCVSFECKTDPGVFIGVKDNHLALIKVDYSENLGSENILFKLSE
Method: The binding ability of murine antibody to cynomolgus IL-33 was determined by indirect enzyme-linked immunosorbent assay (ELISA). The specific methods were as follows: The plate was pre-coated by biotin-avidin (SA) which was diluted in coating solution (50 mM carbonate coating buffer, pH 9.6) to 2 μg/ml at 4° C. overnight. The plate was blocked with 5% skim milk powder at 37° C. for 2 hours, and stored at −80° C. for later use. Biotinylated recombinant cynomolgus IL-33-his protein was diluted to 1 μg/ml in coating solution (50 mM carbonate coating buffer, pH 9.6) and was added at 100 μl/well to the pre-coated SA plate for 0.5 h at 37° C. After washing the plate with PBST for 3 times, the antibodies to be tested were diluted by gradient with 1% BSA buffer and added into the blocked plate with 100 μl/well, and incubated at 37° C. for 1 hour. The plate was washed with PBST for 3 times, and the HRP-labeled goat anti-mouse IgG was added and placed at 37° C. for 30 min. After washing the plate with PBST for 3 times, the plate was patted on the absorbent paper to remove residual droplets as far as possible. […] OD values were read at 450 nm on the microplate reader to analyze the binding ability of the antibody to the target antigen cynomolgus IL-33-his.

Human IL-33-his [6] = target: T1, Human IL-33-his; test: cell-based or functional assay
Human IL-33-his [7] = target: T1, Human IL-33-his; test: ELISA as Example 9, IL-33-his-biotin on streptavidin plate

IC50 (Human IL-33-his [1]): 45.2 nM | IC50 (read off the curve) (Human IL-33-his [2]): ~6 nM | EC50 (Human IL-33-his [3]): 0.127 nM
B1: 864F3-ch1 (antibody, human IgG4 S228P, kappa, V domains shown)
VH: QVQLKESGPGLVAPSQSLSITCTVSGFSLTNYGVHWVRLPPGKGLEWLGVIRAGGSSDYNSALMSRLNIRKDNSKSQVFLEMNSLQTADTAMYYCARDHYFSNSYGGSPYWGQGTLVTVSA
VL: DIQMTQSPASQSASLGESVTITCLASQTIATWLAWYQQKPGKSPQLLIYAATRLADGVPSRFSGSGSGTEFSFKISSLQAEDFVIYYCQQLYNTPYTFGGGTKLEIKR
notes: Chimeric: murine variable regions on human IgG4 (S228P) and human kappa constant regions; also called chimeric antibody 864F3-ch1

EC50 (Human IL-33-his [4]): 0.14 nM | IC50 (Human IL-33-his [5]): 0.74 nM | EC50 (Cynomolgus IL-33-his): 0.04 nM | IC50 of inhibition of IL-33-induced IL-6 expression in HUVEC cells (Human IL-33-his [6]): 1.66 nM | IC50 of inhibition of IL-33-induced IL-8 expression in HUVEC cells (Human IL-33-his [6]): 0.16 nM
B2: 871G1 (antibody, V domains shown)
VH: QVHLKESGPGLVAPSQSLSITCNVSGFSLSKYGVHWIRQTPGRGLDWLGVLRAGGTISYNSALMSRLSISEDISKSQVFLKMNDLQTDDSAIYFCARDHYYYSSFGGFASWGQGTLVTVSA
VL: DIQMTQSPASQSASLGESVTITCLASQTIGAWLAWYRQQPGKSPQLLIYAATRLADGVPSRFSGSGSGTKFSFKINNLQAEDFVIYYCQQLNSTPYTFGGGTRLEM
notes: Murine hybridoma antibody; also called murine antibody 871G1

EC50 (Human IL-33-his [7]): 0.177 nM | IC50 (Human IL-33-his [1]): 0.634 nM | EC50 (Human IL-33-his [3]): 0.144 nM
B3: 874F7-ch (antibody, human IgG4 S228P, kappa, V domains shown)
VH: QVQLKESGPGLVAPSHSLSITCNVSGFSLSKYGVHWIRQIPGRGLDWLGVLRAGGSTGYNSALMSRLSISKDSSKSQVFLKMNDLRTDDTAVYFCVRDHYYYSSYGGFVYWGQGTLVTVSA
VL: DIQMTQSPASQSASLGESVTITCLASQTIGAWLAWYRQQPGKSPQLLIYAATRLADGVPSRFSGSGSGTEFSFKINNLQAEDFVSYYCQQLDSSPYTFGGGTRLEMRT
notes: Chimeric: human IgG4 (S228P) and human kappa constant regions; also called chimeric antibody 874F7-ch
